Reference: patent publication US12072338B2, “Pharmaceutical peptides for the treatment of inflammatory diseases” (PROTAGONISTS LTD., priority 2007, dated 2024)

How the values were obtained:
[1] = target: T1, MCP-4 (Homo sapiens, UniProt Q99616); assay: Micro-array analysis of chemokine binding peptides: MCP-4; conditions: limit = start of the upper 75% of that peptide's response range
T1 construct: purchased 300-24
Protocol: (§1) (1) Printing: Chemokine (CK) solution (in water) was serially diluted with Print Reagent (GenTel BioSurfaces USA) to final concentrations of 50 μg and 25 μg/ml. BSA/BSA-Biotin control solutions (in water) were diluted with Print Reagent to 100 μg/ml. Amplified stock of M13 phage control (M13KEgIII Cloning Vector, New England Biolabs, Cat.No.E8101S) was stored in Tris Buffered Saline (TBS; pH7.5, 4° C.) and diluted with Print Reagent to the working titre (10^8 pfu/μl). An automated spotting robot (16 pin print tool, 0.4 mm head; BioRobotics, UK) was used to print the CK/BSA control/M13 control, 5 repeats per sample (CK 25 μg/ml and 50 μg/ml; BSA 100 μg/ml; M13 20 μl), on PATH Protein Microarray Slides (GenTel, Prod.No. 2-1005/-1025) at […], and 50-70% relative humidity. Printed micro-array slides were stored at Room Temperature (RT) or 4° C. for at least 24 h before use.
(§2) (2) Blocking: Block Buffer (500 μl/partition; PATHblock, GenTel, Prod.No. 2-1014) was applied to the slide for 1 hour at room temp (RT). After removal of Block Buffer, the slide was air dried for 25 minutes;
(§3) (3) Phage Presented Peptide Binding: Amplified recombinant phage stock was stored in TBS and diluted with Wash Buffer to working titer (10^7 pfu/μl). Recombinant phage suspension (300 μl) was applied per partition and incubated at RT for 1 hour with gentle agitation.
(§4) (4) First Washing: The slides were washed twice with Wash Buffer 300 μl/partition).
(§5) (5) Primary Antibody (Ab) Labeling: The slides were incubated with the Primary Ab (1 mg/ml diluted ×2500 (Wash Reagent), 300 μl; Mouse Anti-M13 monoclonal Ab; Amersham Biosciences, UK; Product Code 27-9420-01) for 45 minutes at RT.
(§6) (6) Second Washing: The slides were washed twice with Wash Buffer (300 μl/partition).
(§7) (7) Secondary Ab Labeling: The slides were incubated with Secondary Ab (1.5 mg/ml diluted ×5000 (Wash Reagent), 300 μl; Cy3-conjugated AffiniPure Goat Anti-Mouse IgG; Jackson ImmunoReserch Labs, USA; Product Code 115-165-062).
(§8) (8) Third Washing: The slides were washed twice with Wash Buffer (300 μl/partition).
(§9) (9) Rinse: the slides were rinsed twice with Rinse Buffer (PATHrinse, GenTel, Prod.No. 2-1018) then dried well.
(§10) (10) Scanning: The peptide-bound, labeled slide was scanned (Laser Intensity 80%, Gain 80%, Resolution 10 μm) with a ScanArray Life Scanner (Packard BioChip Technologies, USA).
(§11) (11) Analysis: Quantitative analysis of micro-array was performed by the SpotReader program of Niles Scientific (USA) and presented as Relative Fluorescence (RF) as a function of CK concentration. Micro-array readout (Cy3 fluorescence) was quantified to determine the relative binding affinities of a CBP for the CKs and by inference, the specificity of the CBP for binding to a CK.

[2] = target: T2, Eotaxin (Homo sapiens, UniProt P51671); assay: Micro-array analysis of chemokine binding peptides: Eotaxin
T2 construct: purchased 300-21
Protocol: as §1, §2, §3, §4, §5, §6, §7, §8, §9, §10, §11

[3] = target: T3, TECK (Homo sapiens, UniProt O15444); assay: Micro-array analysis of chemokine binding peptides: TECK
T3 construct: purchased 300-45
T3 sequence (O15444 24-150): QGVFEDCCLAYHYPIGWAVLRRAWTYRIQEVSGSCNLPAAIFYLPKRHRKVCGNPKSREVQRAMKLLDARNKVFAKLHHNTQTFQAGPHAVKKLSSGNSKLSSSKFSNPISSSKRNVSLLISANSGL
Protocol: as §1, §2, §3, §4, §5, §6, §7, §8, §9, §10, §11

[4] = target: T4, Mig (Homo sapiens, UniProt Q07325); assay: Micro-array analysis of chemokine binding peptides: Mig
T4 construct: purchased 300-26
T4 sequence (Q07325 23-125): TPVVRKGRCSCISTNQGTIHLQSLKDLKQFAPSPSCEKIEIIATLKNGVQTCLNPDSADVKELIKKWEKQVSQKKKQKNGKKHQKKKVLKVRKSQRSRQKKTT
Protocol: as §1, §2, §3, §4, §5, §6, §7, §8, §9, §10, §11

[5] = target: T5, Exodus-2 (Homo sapiens, UniProt O00585); assay: Micro-array analysis of chemokine binding peptides: Exodus-2
T5 construct: purchased 300-35
T5 sequence (O00585 24-134): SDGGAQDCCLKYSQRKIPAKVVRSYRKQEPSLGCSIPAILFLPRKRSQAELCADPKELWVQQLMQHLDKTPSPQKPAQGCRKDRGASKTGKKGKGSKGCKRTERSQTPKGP
Protocol: as §1, §2, §3, §4, §5, §6, §7, §8, §9, §10, §11

[6] = target: T6, MCP-2 (Homo sapiens, UniProt P80075); assay: Micro-array analysis of chemokine binding peptides: MCP-2; conditions: limit = start of the upper 75% of that peptide's response range
T6 construct: purchased 300-15
T6 sequence (P80075 24-99): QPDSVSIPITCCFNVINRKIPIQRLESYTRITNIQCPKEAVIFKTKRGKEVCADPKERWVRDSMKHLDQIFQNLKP
Protocol: as §1, §2, §3, §4, §5, §6, §7, §8, §9, §10, §11

[7] = target: T7, GRO-β (Homo sapiens, UniProt P19875); assay: Micro-array analysis of chemokine binding peptides: GRO-β
T7 construct: purchased 300-39
T7 sequence (P19875 35-107): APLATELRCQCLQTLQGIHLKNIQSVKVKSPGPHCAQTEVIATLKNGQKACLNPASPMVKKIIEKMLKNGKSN
Protocol: as §1, §2, §3, §4, §5, §6, §7, §8, §9, §10, §11

[8] = target: T8, MCP-1 (Homo sapiens, UniProt P13500); assay: Micro-array analysis of chemokine binding peptides: MCP-1; conditions: limit = start of the upper 75% of that peptide's response range
T8 construct: purchased 300-04
Protocol: as §1, §2, §3, §4, §5, §6, §7, §8, §9, §10, §11

[9] = target: T9, Eotaxin 3 (Homo sapiens, UniProt Q9Y258); assay: Micro-array analysis of chemokine binding peptides: Eotaxin 3
T9 construct: purchased 300-48
T9 sequence (Q9Y258 24-94): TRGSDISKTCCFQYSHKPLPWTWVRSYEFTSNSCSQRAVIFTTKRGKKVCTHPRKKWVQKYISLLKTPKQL
Protocol: as §1, §2, §3, §4, §5, §6, §7, §8, §9, §10, §11

[10] = tested on: IL-8; assay: Micro-array analysis of chemokine binding peptides: IL-8
Protocol: as §1, §2, §3, §4, §5, §6, §7, §8, §9, §10, §11

[11] = target: T10, BCA-1 (Homo sapiens, UniProt O43927); assay: Micro-array analysis of chemokine binding peptides: BCA-1
T10 construct: purchased 300-47
T10 sequence (O43927 23-109): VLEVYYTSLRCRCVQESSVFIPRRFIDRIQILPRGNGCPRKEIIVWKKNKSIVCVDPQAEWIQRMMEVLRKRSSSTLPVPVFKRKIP
Protocol: as §1, §2, §3, §4, §5, §6, §7, §8, §9, §10, §11

[12] = target: T11, Lymphotactin (Homo sapiens, UniProt P47992); assay: Micro-array analysis of chemokine binding peptides: Lymphotactin
T11 construct: purchased 300-20
T11 sequence (P47992 22-114): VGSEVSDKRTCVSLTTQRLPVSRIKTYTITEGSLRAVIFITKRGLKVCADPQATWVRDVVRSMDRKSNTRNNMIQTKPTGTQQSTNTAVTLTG
Protocol: as §1, §2, §3, §4, §5, §6, §7, §8, §9, §10, §11

[13] = target: T12, IP-10 (Homo sapiens, UniProt P02778); assay: Micro-array analysis of chemokine binding peptides: IP-10
T12 construct: purchased 300-12
T12 sequence (P02778 22-98): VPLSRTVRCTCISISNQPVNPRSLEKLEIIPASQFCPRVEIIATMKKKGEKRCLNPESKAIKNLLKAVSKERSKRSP
Protocol: as §1, §2, §3, §4, §5, §6, §7, §8, §9, §10, §11

[14] = target: T13, Fractalkine (Homo sapiens, UniProt P78423); assay: Micro-array analysis of chemokine binding peptides: Fractalkine
T13 construct: purchased 300-31
T13 sequence (P78423 25-100 limits assumed): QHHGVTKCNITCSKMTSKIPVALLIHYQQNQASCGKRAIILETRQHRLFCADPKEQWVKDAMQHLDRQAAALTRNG
Protocol: as §1, §2, §3, §4, §5, §6, §7, §8, §9, §10, §11

[15] = target: T14, RANTES (Homo sapiens, UniProt P13501); assay: Micro-array analysis of chemokine binding peptides: RANTES
T14 construct: purchased 300-06
T14 sequence (P13501 24-91): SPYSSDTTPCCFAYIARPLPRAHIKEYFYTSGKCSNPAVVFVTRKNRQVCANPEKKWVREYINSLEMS
Protocol: as §1, §2, §3, §4, §5, §6, §7, §8, §9, §10, §11

[16] = target: T15, I-309 (Homo sapiens, UniProt P22362); assay: Micro-array analysis of chemokine binding peptides: I-309
T15 construct: purchased 300-37
T15 sequence (P22362 24-96): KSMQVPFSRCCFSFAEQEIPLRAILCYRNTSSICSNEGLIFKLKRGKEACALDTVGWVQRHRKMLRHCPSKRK
Protocol: as §1, §2, §3, §4, §5, §6, §7, §8, §9, §10, §11

[17] = target: T16, I-TAC (Homo sapiens, UniProt O14625); assay: Micro-array analysis of chemokine binding peptides: I-TAC
T16 construct: purchased 300-46
T16 sequence (O14625 22-94): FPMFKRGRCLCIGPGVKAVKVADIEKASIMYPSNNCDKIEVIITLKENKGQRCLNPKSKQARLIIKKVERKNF
Protocol: as §1, §2, §3, §4, §5, §6, §7, §8, §9, §10, §11

[18] = target: T17, SDF1-β (Homo sapiens, UniProt P48061); assay: Micro-array analysis of chemokine binding peptides: SDF1-β
T17 construct: purchased 300-28b
Protocol: as §1, §2, §3, §4, §5, §6, §7, §8, §9, §10, §11

[19] = target: T18, Eotaxin 2 (Homo sapiens, UniProt O00175); assay: Micro-array analysis of chemokine binding peptides: Eotaxin 2
T18 construct: purchased 300-33
T18 sequence (O00175 27-119): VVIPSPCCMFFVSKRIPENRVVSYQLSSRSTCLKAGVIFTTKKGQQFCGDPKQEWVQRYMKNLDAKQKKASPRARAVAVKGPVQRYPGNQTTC
Protocol: as §1, §2, §3, §4, §5, §6, §7, §8, §9, §10, §11

[20] = target: T19, SDF1-α (Homo sapiens, UniProt P48061); assay: Micro-array analysis of chemokine binding peptides: SDF1-α
T19 construct: purchased 300-28a
Protocol: as §1, §2, §3, §4, §5, §6, §7, §8, §9, §10, §11

[21] = limit = start of the upper 75% of that peptide's response range

T1 sequence (Q99616 17-98): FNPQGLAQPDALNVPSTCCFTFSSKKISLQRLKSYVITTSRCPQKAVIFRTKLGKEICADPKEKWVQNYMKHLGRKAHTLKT
T8 sequence (P13500 24-99): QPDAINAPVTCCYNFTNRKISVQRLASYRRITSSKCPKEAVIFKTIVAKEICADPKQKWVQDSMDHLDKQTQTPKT
Sequence of IL-8 (P10145 28-99 limits assumed): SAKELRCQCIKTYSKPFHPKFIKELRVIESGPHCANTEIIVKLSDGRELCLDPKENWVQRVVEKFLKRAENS
T17 sequence (P48061 22-93): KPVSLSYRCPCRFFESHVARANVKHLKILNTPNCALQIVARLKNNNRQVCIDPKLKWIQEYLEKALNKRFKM
T19 sequence (P48061 22-89 limits assumed): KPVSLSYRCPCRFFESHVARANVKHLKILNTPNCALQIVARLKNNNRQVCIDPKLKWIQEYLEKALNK

binding to MCP-4 with relatively high affinity (Relative Fluorescence Units) [1]	binding to Eotaxin, stated in words [2]	binding to TECK, stated in words [3]	binding to Exodus-2, stated in words [5]	binding to MCP-2 with relatively high affinity (Relative Fluorescence Units) [6]	binding to MCP-1 with relatively high affinity (Relative Fluorescence Units) [8]	binding to Eotaxin 3, stated in words [9]	binding to BCA-1, stated in words [11]	binding to Lymphotactin, stated in words [12]	binding to Fractalkine, stated in words [14]	binding to RANTES, stated in words [15]	binding to Mig, stated in words [4]	binding to IP-10, stated in words [13]	Substance	also measured
> 15,000 RFU	bound	bound	bound	> 15,000 RFU	> 15,000 RFU	bound	bound	bound	bound	bound			WVFGHGMCK [Ph-p25]	binding to Mig with relatively high affinity (Relative Fluorescence Units) [4, 21]: > 15,000 RFU; binding to GRO-β with relatively high affinity (Relative Fluorescence Units) [7, 21]: > 15,000 RFU; binding to IL-8 with relatively high affinity (Relative Fluorescence Units) [10, 21]: > 15,000 RFU; binding to IP-10 with relatively high affinity (Relative Fluorescence Units) [13, 21]: > 15,000 RFU
> 15,000 RFU	bound	bound	bound	> 15,000 RFU	> 15,000 RFU	bound	bound	bound	bound	bound	bound	bound	TKCOKE (TKCQKE; listed as Homo sapiens) [Ph-p20]	binding to GRO-β, stated in words [7]: bound; binding to IL-8, stated in words [10]: bound
> 15,000 RFU	bound	bound	bound	> 15,000 RFU	> 15,000 RFU	bound	bound	bound			bound	bound	WVFGAAACK [Ph-p8.6]	binding to I-309, stated in words [16]: bound; binding to I-TAC, stated in words [17]: bound; binding to SDF1-β, stated in words [18]: bound; binding to Eotaxin 2, stated in words [19]: bound; binding to SDF1-α, stated in words [20]: bound
